The values below come from PMC8395052.

For this test, the target named is T1, human estrogen receptor-alpha (ERα) fused at its N-terminus with NanoLuc luciferase (Nluc-ERα) or HaloTag (HT-ERα) (human), P03372.
T1 chain: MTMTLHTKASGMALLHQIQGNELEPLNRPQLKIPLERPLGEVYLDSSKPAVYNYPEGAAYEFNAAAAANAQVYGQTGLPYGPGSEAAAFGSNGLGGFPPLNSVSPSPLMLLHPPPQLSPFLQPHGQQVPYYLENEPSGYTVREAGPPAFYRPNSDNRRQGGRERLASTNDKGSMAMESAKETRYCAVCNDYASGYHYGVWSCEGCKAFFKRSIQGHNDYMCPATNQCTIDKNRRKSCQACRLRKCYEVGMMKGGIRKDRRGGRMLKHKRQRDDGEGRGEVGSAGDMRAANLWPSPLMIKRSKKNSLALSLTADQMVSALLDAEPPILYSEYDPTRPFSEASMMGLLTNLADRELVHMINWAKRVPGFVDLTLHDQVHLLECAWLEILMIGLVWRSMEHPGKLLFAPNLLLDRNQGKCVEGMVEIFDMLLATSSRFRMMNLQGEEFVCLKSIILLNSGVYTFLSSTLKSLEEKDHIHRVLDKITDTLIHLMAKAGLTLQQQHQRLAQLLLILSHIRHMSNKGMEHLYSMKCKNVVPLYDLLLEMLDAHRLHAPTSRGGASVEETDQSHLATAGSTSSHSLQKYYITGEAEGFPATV
Nature of the test: FRET or BRET; NanoBRET in living HEK293 cells co-transfected with Nluc-ERα (donor) and HT-ERα (acceptor), 1:1; HaloTag NanoBRET 618 ligand; cells treated 24 h with E2, 17α-estradiol, diethylhexyl phthalate, bisphenol A or 4-nonylphenol; fold induction of the corrected BRET unit (618 nm/460 nm) over the vehicle control (0.1% DMSO). Conditions: remark: other sources report otherwise. In general terms: Bioluminescence resonance energy transfer reports proximity on the nanometre scale.

B1: human estrogen receptor-alpha (ERα) fused at its N-terminus with NanoLuc luciferase (Nluc-ERα) or HaloTag (HT-ERα), P03372 1-595 (receptor)
chain: T1 chain
modifications: here or on the partner: HaloTag NanoBRET 618 ligand on the HaloTag of the acceptor copy; HaloTag NanoBRET 618 ligand on the HaloTag of the acceptor copy
In turn, B1 showed a fold induction of the BRET signal over vehicle control, with 4-nonylphenol of 2.3 fold; a fold induction of the BRET signal over vehicle control, with 17α-estradiol 10^-8 M of 2.7 fold; a fold induction of the BRET signal over vehicle control, with E2 10^-9 M of 2.7 fold; a fold induction of the BRET signal over vehicle control, with bisphenol A 10^-5 M of 5.7 fold. Further, the fold induction of the BRET signal over vehicle control, with diethylhexyl phthalate was 2.3 fold.
